Experimental findings from patent US20170204182A1 (published 2017) are described below.

Numbering of substitutions follows the chain as printed.

One test deals with T1, CD81 (UniProt P60033 1-236, limits assumed).
T1 construct: whole, on cells; also called CD81 receptor
T1 sequence (looked up): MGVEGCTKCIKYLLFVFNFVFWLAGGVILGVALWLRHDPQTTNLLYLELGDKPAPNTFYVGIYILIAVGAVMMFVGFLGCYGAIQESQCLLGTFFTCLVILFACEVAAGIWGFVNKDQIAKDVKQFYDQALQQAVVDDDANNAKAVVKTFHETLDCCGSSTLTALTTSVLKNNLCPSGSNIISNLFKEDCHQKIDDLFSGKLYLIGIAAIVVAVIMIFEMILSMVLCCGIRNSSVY
Kind of test: cell ELISA. In general terms: In an ELISA, binding on a coated surface is turned into a signal by an enzyme label.

In test [1] the target is T2, phosphorylated human tau protein (human, UniProt P10636-8 1-441, limits assumed, S422 phosphorylation).
T2 construct: also called pTau
T2 sequence (P10636 other isoform, or with tags, fused parts or gaps limits assumed): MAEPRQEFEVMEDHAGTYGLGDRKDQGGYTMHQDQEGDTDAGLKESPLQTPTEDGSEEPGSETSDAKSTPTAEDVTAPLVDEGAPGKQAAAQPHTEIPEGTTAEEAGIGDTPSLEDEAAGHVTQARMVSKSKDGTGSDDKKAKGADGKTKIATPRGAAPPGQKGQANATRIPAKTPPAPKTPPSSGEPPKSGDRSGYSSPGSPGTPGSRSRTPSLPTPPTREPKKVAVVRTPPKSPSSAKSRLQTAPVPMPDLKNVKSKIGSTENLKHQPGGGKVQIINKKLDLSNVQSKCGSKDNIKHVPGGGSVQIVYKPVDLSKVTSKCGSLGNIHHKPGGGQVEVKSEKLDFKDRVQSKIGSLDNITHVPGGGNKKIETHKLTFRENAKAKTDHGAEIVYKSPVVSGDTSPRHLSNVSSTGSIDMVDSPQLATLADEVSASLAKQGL
The experiment in a line: SPR (BIAcore), captured antibody. A general note: In SPR one partner is held on a chip, and binding of the other changes the refractive index at the surface.

Test [2] has as its target T2, phosphorylated human tau protein. Kind of test: SPR (BIAcore); value set to 0 where kd not determinable.

Procedure for CD81: For the binding cell ELISA assay, HuH7-Rluc-H3 (positive cell line expressing CD81) and HuH7-Rluc-L1 (negative control cell line) were propagated in F-12 DMEM medium with 10% FCS at 37° C. and 5% CO₂. On day 1, the cells were trypsinized at approximately 90% confluence and resuspended at 4×10⁵ cells/mL. […] On day 2, the antibody samples to be tested were prepared in a separate polypropylene round bottom plate with a twofold desired concentration with a final volume of 120 μl. All of the assay samples were diluted in cell culture medium. […] After fixation, each well was washed 3 times with 200 μL PBS/0.05% Tween. The secondary incubation step for detection of bound anti-CD81 antibodies was performed for 2 h at room temperature on a reciprocal shaker. […] Each well was washed three times with 200 PBS/0.05% Tween to remove unbound antibodies. […] The absorbance was read using the ELISA Tecan reader at 450 nm with 620 nm reference wavelength.

B1: CD81K04 HC CD81K04 / LC CD81K04 (antibody, V domains shown)
VH: QVQLQQSGPELVKPGASVKISCKASGYTFSSSWMNWVKQRPGKGLEWIGRIYSGDGDAIYNGKFKGKATLTADKSSSTAYMQLSSLTSEDSAVYFCAREGKTGDLLLRSWGQGSALTVSS
VL: DIVLTQSPASLSVSLGQRATISCRASKSVSTSIYSYMHWYQQKPGQPPKLLIKYASYLESGVPARFSGSGSGTDFTLNIHPVEEEDAATYYCEHSREFPFTFGTGTKLEIK
notes: chimeric form of murine CD81K04
In the test with CD81, B1 returned an ELISA absorbance of 1.14.

B2: CD81K04 HC K04_JA-13-hVH_1_3 / LC CD81K04 (antibody, V domains shown)
VH: QVQLVQSGAEVKKPGASVKVSCKASGYTFSSSWMNWVRQAPGQRLEWMGRIYSGDGDAIYNGKFKGRVTITRDTSASTAYMELSSLRSEDTAVYYCAREGKTGDLLLRSWGQGTLVTVSS
VL: B1 VL
As to B2, the ELISA absorbance in the test with CD81 came to 0.975.

B3: Rb86 variant: HC Rb86 / LC 012--IMGT_hVK_1_17 (antibody, V domains shown)
VH: QSVEESGGRLVTPGTPLTLTCTVSGFSLSSNAINWVRQAPGKGLEWIGYIAVSGNTYYASWAKGRFTISKASTTVDLKMTSPTAEDTGTYFCGKSNIWGPGTLVTVSL
VL: DIQMTQSPSSLSASVGDRVTITCRASQGVRTNKLAWFQQKPGQPPKRLIYSASTLQSGVPSRFSGSGSGTEFTLTISSLQPEDFATYYCLGYFDCSIADCVAFGGGTKVEIK
As for B3, the “half-life (t1/2)” value in test [1] is 15.9 min.

B4: Rb86 variant: HC Rb86 / LC 017--IMGT_hVK_1_17 (antibody, V domains shown)
VH: B3 VH
VL: B3 VL with A25S, G28S, Q56D, S57F
With B4, the “half-life (t1/2)” value in test [1] worked out at 23.2 min.

B5: Rb86 variant: HC 001_IGHV3_23_04 / LC 006--IMGT_hVK_7_3 (antibody, V domains shown)
VH: QQLVESGGGLVQPGGSLRLSCAASGFSLSSNAINWVRQAPGKGLEWVGYIAVSGNTYYASWAKGRFTISRDNSKNTLYLQMNSLRAEDTAVYYCGKSNIWGQGTLVTVSS
VL: DIVLTQSPASLAVSPGQRATITCQSSQSVRTNKLAWFQQKPGQPPKRLIYSASTLDFGVPARFSGSGSGTDFTLTINPVEANDTANYYCLGYFDCSIADCVAFGGGTKVEIK
As for B5, the “half-life (t1/2)” value in test [1] turned out to be 4.38 min.

B6: Rb86 variant: HC 001_IGHV3_23_04 / LC 010--IMGT_hVK_1_17 (antibody, V domains shown)
VH: B5 VH
VL: B3 VL with A35G, F37Y, Q43K, P44A
With B6, in test [2], the “half-life (t1/2)” value was 0 h.

B7: Rb86 variant: HC 001_IGHV3_23_04 / LC 014--IMGT_hVK_1_17 (antibody, V domains shown)
VH: B5 VH
VL: B3 VL with P81S
As for B7, the “half-life (t1/2)” value in test [1] was determined as 5.08 min.

B8: Rb86 variant: HC 002--IMGT_hVH_3_23 / LC Rb86 (antibody, V domains shown)
VH: B5 VH with Q2S, L3V, V4L, Q102P
VL: AQVLTQTTSPVSAAVGSTVTISCQSSQSVRTNKLAWFQQKPGQPPKRLIYSASTLDFGVPSRFSASGSGTQFTLTISDVQCDDAATYYCLGYFDCSIADCVAFGGGTEVVVK
Take B8: the “half-life (t1/2)” value in test [1] amounted to 8.41 min.

B9: Rb86 variant: HC 001_IGHV3_23_04 / LC 013--IMGT_hVK_1_17 (antibody, V domains shown)
VH: B5 VH
VL: B3 VL with P8T
For the molecule B9, the “half-life (t1/2)” value in test [1] turned out to be 5.65 min.

B10: Rb86 variant: HC 001_IGHV3_23_04 / LC 015--IMGT_hVK_1_17 (antibody, V domains shown)
VH: B5 VH
VL: B3 VL with C95S, C100S
On to B10, for which the “half-life (t1/2)” value in test [1] was determined as 3.02 min.

B11: Rb86 variant: HC 001_IGHV3_23_04 / LC 017--IMGT_hVK_1_17 (antibody, V domains shown)
VH: B5 VH
VL: B3 VL with A25S, G28S, Q56D, S57F
In the case of B11, in test [1], the “half-life (t1/2)” value worked out at 5.26 min.

B12: Rb86 variant: HC 001_IGHV3_23_04 / LC 012--IMGT_hVK_1_17 (antibody, V domains shown)
VH: B5 VH
VL: B3 VL
Take B12: the “half-life (t1/2)” value in test [1] is 4.67 min.
